B1: bispecific fusion protein 17V05 (bispecific antibody, V domains shown)
VH: EVQLVESGGGLVQPGGSLRLSCAASGFTFSSFDMSWGRQAPGKRLEWVAFMSSGGSTYYPDSVKGRFTISRDNSKNTLYLQMNSLRAEDTAVYYCARGERYGSYWGQGTLVTVSS
VL: DIQMTQSPSSLSASVGDRVTITCKASDHINNWLAWYQQKPGKAPKLLISGATSLETGVPSRFSGSGSGTDYTLTISSLQPEDFATYYCQQYWSTPFTFGSGTKLEIK
notes: heavy chain of the clinical stage anti-IL-17A mAb 608 (Sunshine Guojian Pharmaceutical); linker, printed as (G4S) x 3; light chain of the anti-IL-17A mAb 608; Variant of 17V01 with M464A in D2; Two copies of D2, one at the C-terminus of each heavy chain of 608; also called bispecific anti-IL17/VEGF fusion trap; source: 293HEK cells, one-step purification with protein A chromatography (told of the …)
B2: D2-Fc, a fusion protein with D2 fused to the N-terminus of an Fc (Fc fusion)
chain: SDTGRPFVEMYSEIPEIIHMTEGRELVIPCRVTSPNITVTLKKFPLDTLIPDGKRIIWDSRKGFIISNATYKEIGLLTCEATVNGHLYKTNYLTHRQTNTIID
modifications: Limits are not printed. VEGFR1 D2 is taken as S129-D231, the aflibercept / Flt1 D2 convention. The Fc carrier is omitted; two copies assume an Fc dimer. The printed clip site M464/Y465 (fusion …)

Experiments:
Conditions in all cases: both partners purified
[1] = biological target: T1, IL-17A (human, UniProt Q16552); test: SPR; Biacore, n = 3
T1 construct: IL-17A

[2] = biological target: T1, IL-17A; test: ELISA; direct binding ELISA to IL-17A or VEGF, measured in duplicate, n = 2; who was coated is not told
[3] = biological target: T1, IL-17A; test: ELISA; ELISA-based assay of blocking the interaction of IL-17A with IL-17RA, in duplicate, n = 3
[4] = biological target: T2, VEGF (UniProt P15692 1-395); test: ELISA; direct binding ELISA to IL-17A or VEGF, measured in duplicate, n = 2; who was coated is not told
T2 construct: vascular endothelial growth factor (VEGF); Probably VEGF165 (surmised); also called vascular endothelial growth factor
T2 sequence (P15692 whole entry): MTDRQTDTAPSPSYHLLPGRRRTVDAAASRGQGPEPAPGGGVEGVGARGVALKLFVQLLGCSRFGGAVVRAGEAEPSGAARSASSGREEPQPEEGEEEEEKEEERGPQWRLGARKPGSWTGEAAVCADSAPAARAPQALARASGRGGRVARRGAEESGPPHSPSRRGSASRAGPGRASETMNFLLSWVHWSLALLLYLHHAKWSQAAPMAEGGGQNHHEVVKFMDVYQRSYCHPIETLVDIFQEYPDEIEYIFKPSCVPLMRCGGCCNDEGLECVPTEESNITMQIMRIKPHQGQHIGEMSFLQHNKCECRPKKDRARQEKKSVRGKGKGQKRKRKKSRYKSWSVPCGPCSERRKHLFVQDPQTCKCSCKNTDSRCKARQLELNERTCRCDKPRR

T1 sequence (Q16552 24-155): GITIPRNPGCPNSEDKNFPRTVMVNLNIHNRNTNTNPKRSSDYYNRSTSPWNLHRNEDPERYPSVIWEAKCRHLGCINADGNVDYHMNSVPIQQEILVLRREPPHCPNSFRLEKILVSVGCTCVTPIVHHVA

| Binder | Kd [1] | EC50 [2] | IC50 [3] | EC50 [4] |
| --- | --- | --- | --- | --- |
| B1 | 0.0184 nM | 0.05 nM | 2.77 nM |  |
| B2 |  |  |  | 0.39 nM |

From article PMC11681983 (Biochemistry Research International, 2024)
